Values of other authors as cited in article PMC5659385.

Biological target: concanavalin A (Canavalia ensiformis) (UniProt P02866)
Chain of UniProt P02866 (P02866 30-148, chain 1 of 2): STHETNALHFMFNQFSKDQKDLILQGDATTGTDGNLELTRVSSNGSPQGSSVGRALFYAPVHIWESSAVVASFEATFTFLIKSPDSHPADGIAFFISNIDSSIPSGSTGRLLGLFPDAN
Chain of UniProt P02866 (P02866 164-281, chain 2 of 2): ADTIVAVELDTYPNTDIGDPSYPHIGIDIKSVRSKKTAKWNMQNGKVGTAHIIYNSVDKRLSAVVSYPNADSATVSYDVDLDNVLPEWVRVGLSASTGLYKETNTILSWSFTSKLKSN

Q: Which Kd does the source give for glucose oxidase (from UniProt P13006) here?
A: 1.64 nM
